# According to patent US7537910B2, “Lactamase amplification substrate” (Discoverx Corp., priority 2005, dated 2009):
# How the values were obtained:
# TEM-1 lactamase = TEM-1 lactamase (Escherichia coli, UniProt P62593); settings: cED47mer 50 nM, CHOK1 cell lysates, 3-hour incubation with varying TEM1 lactamase (picomole), read 1 hr after EA and substrate
# Experimental: The assay comprises two basic steps: • 1) hydrolysis of the lactam in the cyclic ED lactamase substrate (cED 47mer) by the lactamase to yield a linear ED; and • 2) detection of the linear ED by EA and β-galactosidase chemiluminescent substrate. The lactamase reaction step comprises 101 of cell lysate (<4000 CHOK1 cells, DiscoveRx, Fremont, Calif.) or cell lysis buffer (part # 30-175, DiscoveRx, Fremont, Calif.), 10 μl cED47mer substrate at 50 nM and 10 μl of lactamase (TEM-1, Invitrogen Part # PV3575) at varying concentrations. The reaction mixture is then incubated at ambient temperature for various time intervals. The detection step comprises addition of 10 μL1 EA (1-2 μM, DiscoveRx, Fremont, Calif.) and 10 μl chemiluminescent substrate reagent (Applied Biosystems, Foster City, Calif.).
# The chemiluminescence was read 1 hr after addition of EA and chemiluminescent substrate on a Packard Lumincount Reader (Packard Instruments, Meridien, Conn.) with the PMT set at 1100V and read time 1 second per well.
# [1] = test system: EA (enzyme acceptor fragment of β-galactosidase); experiment: Enzyme Fragment Complementation (EFC) assay; assay type: biochemical; settings: 50 nM ED, EA plus chemiluminescence substrate, 60 min room temperature; compared to linear ED (cysteines capped with maleimide)
# Experimental: For determination of EFC activity, 10 μL of 50 nM cyclic ED-Lactamase substrate (cED47mer) or 10 μl linear ED (Cysteines capped with maleimide, DiscoveRx, Fremont, Calif.) 50 nM was added to 20 μl EDDB Enzyme donor dilution buffer (MES 10 mM, NaCl 200 mM, EGTA 10 mM, BSA 2 mg/ml, NaN3 14.6 mM) (DiscoveRx, Fremont, Calif.) in a 384-well white plate.
substance,measurement,setting,value
cED47mer: 47-mer β-galactosidase enzyme donor peptide (SEQ ID NO:1) cyclized through its two cysteines with bis-maleimide cephem compound 3 (CSLAVVLQQRRDWENPGVTQLNRLAAHPPFASWRNSEEARTDCPSQQL; cyclized via cysteines with bis-maleimide cephem compound 3; …ON),chemiluminescence signal after cleavage with lactamase (FIG. 5),TEM-1 lactamase,increased with concentration of E. coli TEM1 lactamase (picomole) in a dose dependent fashion
same,EFC activity (FIG. 4),[1],reduction of EFC activity
